What was measured:
Assay in all cases: SPR; Biacore X100; biotinylated histone 3 peptides immobilised on a Biotin CAPture chip (about 10 RU); PHD finger flowed at 10 μl/min, 0.39-400 μM; 300 mM NaCl, 10 mM Tris pH 8, 0.05% Tween 20, 0.1 mM TCEP; equilibrium binding isotherm model
[1] = target: histone 3 peptide trimethylated at lysine 4 (H3K4me3)
[2] = target: histone 3 peptide dimethylated at lysine 4 (H3K4me2)
[3] = target: histone 3 peptide monomethylated at lysine 4 (H3K4me1)

Kd [1]: 31 µM
Kd [2]: 54.5 µM
Kd [3]: 126 µM
Substance: MtING1PHD, PHD finger of Medicago ING1 (M180-K247) (domain or fragment)

Source: paper PMC9828230
